Experimental data published in paper PMC5187519.

Assays:
30S–IF3DL complex [1] = target: 30S–IF3DL complex (UniProt P0A707); assay: other fluorescence titration; equilibrium; preformed 30S–IF3DL (0.5 µM) titrated with IF1 (0.1-2 µM); intramolecular FRET of IF3DL; HAKM10 buffer; one-site binding fit
30S–IF3DL complex [2] = target: 30S–IF3DL complex (UniProt P0A707); assay: stopped-flow fluorescence; pre-steady state; preformed 30S–IF3DL (0.1 µM) mixed with a 10-fold molar excess of IF1 (1 µM); intramolecular FRET of IF3DL; TAKM10 buffer, 25 °C; single exponential fit; apparent rate constant
[3] = target: 30S subunit (minor ribosomal subunit); assay: stopped-flow fluorescence; pre-steady state; 30S subunits (0.1 µM) mixed with equimolar IF3DL; intramolecular FRET of IF3DL; TAKM10 buffer, 25 °C; fit with two exponential terms; apparent rate constants

Kd (30S–IF3DL complex [1]) [µM] | kapp (IF1-dependent FRET change at 1 µM IF1; a step after the initial binding) (30S–IF3DL complex [2]) [s⁻¹] | kapp1 (initial bimolecular encounter, 0.1 µM each) [3] [s⁻¹] | Binder
0.1 | 0.26 | – | Initiation factor IF1 (natural protein) MAKEDNIEMQGTVLETLPNTMFRVELENGHVVTAHISGKMRKNYIRILTGDKVTVELTPYDLSKGRIVFRSR
– | – | 16 | IF3DL (double-labeled IF3; IF3 E166C with Atto-540Q at the CTD and Atto-488 at the NTD) (natural protein, Atto-540Q maleimide on the recombinant cysteine 166 (E166C, CTD); Atto-488 maleimide on the natural cysteine 65 (NTD)) MKGGKRVQTARPNRINGEIRAQEVRLTGLEGEQLGIVSLREALEKAEEAGVDLVEISPNAEPPVCRIMDYGKFLYEKSKSSKEQKKKQKVIQVKEIKFRPGTDEGDYQVKLRSLIRFLEEGDKAKITLRFRGREMAHQQIGMEVLNRVKDDLQELAVVESFPTKICGRQMIMVLAPKKKQ
